From patent US20260176358A1 (JIANGSU HENGRUI PHARMACEUTICALS, published 2026)
Where two headings read alike, the source gives them in different places.

T1: PACAP38 (UniProt P18509 132-169, biotinylated in the ELISAs)
T1 peptide (looked up): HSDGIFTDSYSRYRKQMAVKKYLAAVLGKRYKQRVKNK

T2: PACAP27 (UniProt P18509 132-158, biotinylated in the ELISAs)
T2 peptide (looked up): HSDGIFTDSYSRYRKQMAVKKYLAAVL

T3: human CGRP (human, UniProt P06881 83-119)
T3 peptide (looked up): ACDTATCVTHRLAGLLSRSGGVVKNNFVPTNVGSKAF

T4: rat CGRP (rat, UniProt P01256 83-119)
T4 peptide (looked up): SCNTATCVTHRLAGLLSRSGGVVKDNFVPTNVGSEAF


How the values were obtained:
PACAP38 [1] = biological target: T1, PACAP38; assay: competition ELISA, biotinylated PACAP38 to coated VPAC1-Fc
Method: (§1) The plates were incubated for 1 h and washed, and a horseradish peroxidase-labeled streptavidin secondary antibody was then added. After incubation, color development was performed.

PACAP38 [2] = biological target: T1, PACAP38; assay: cell-based or functional assay
PACAP38 [3] = biological target: T1, PACAP38; assay: competition ELISA, biotinylated PACAP38 to coated PAC1-Fc
Method: as §1

PACAP38 [4] = biological target: T1, PACAP38; assay: competition ELISA, biotinylated PACAP38 to coated VPAC2-Fc
Method: as §1

PACAP38 [5] = biological target: T1, PACAP38; assay: cell-based or functional assay
CGRP [6] = assay: cell-based or functional assay
PACAP27 = biological target: T2, PACAP27; assay: ELISA, antibody on coated anti-human Fc, biotinylated peptide
Method: (§2) Plates were coated with 1 μg/mL anti-human Fc and blocked, and the antibodies, serially diluted, were added. […] The plates were incubated for 1 h and washed, and a horseradish peroxidase-labeled streptavidin secondary antibody was then added. After incubation, color development was performed.

PACAP38 [7] = biological target: T1, PACAP38; assay: as above
Method: as §2

human CGRP [8] = biological target: T3, human CGRP; assay: SPR, Biacore 8K, 25 C, biotinylated antibody on SA chip, 1:1 model
Method: First, the test antibodies ([…] for the mAbs and 4 μg/mL for the diabodies), biotinylated (indicated by Biotin-), were each coupled onto an SA biosensor chip. Then samples of the antigen human CGRP were sequentially injected in ascending order for 180 s, followed by dissociation. After the test was finished, fitting was performed using a 1:1 binding model.

rat CGRP [9] = biological target: T4, rat CGRP; assay: SPR, Biacore 8K, antibody captured on Protein A chip, 1:1 model
Method: A Protein A biosensor chip was used to affinity-capture IgG, and a molecule sample was then allowed to flow through the surface of the chip. Reaction signals were detected in real time using a Biacore 8K system to obtain association and dissociation curves. After the dissociation in each experimental cycle was complete, the biosensor chip was washed and regenerated 3 times with 50 mM NaOH. Data fitting was performed using a 1:1 model.

CGRP [10] = assay: cell-based or functional assay; remark: listed apart in the source
human CGRP [11] = biological target: T3, human CGRP; assay: ELISA, coated CGRP
Method: (§3) In this test example, the abilities of the chimeric antibodies and humanized antibodies of C1 #, C9 #, C21 #, and C28 #to bind to human CGRP and rat CGRP were assessed using ELISAs. Plates were coated with […] human CGRP and rat CGRP, respectively, and blocked, and the antibodies, serially diluted, were then added. The plates were incubated for 1 h and washed, and a horseradish peroxidase-labeled anti-human Fc secondary antibody was then added. After incubation, color development was performed. […] The plates were incubated for 1 h and washed, and the antibodies, serially diluted, were then added. The plates were incubated for 1 h and washed, and a horseradish peroxidase-labeled streptavidin secondary antibody was then added. After incubation, color development was performed.

rat CGRP [12] = biological target: T4, rat CGRP; assay: ELISA, coated CGRP
Method: as §3

Binder	IC50 (PACAP38 [1])	IC50, inhibition of cAMP production in SH-SY5Y cells (PACAP38 [2])	IC50 (PACAP38 [3])	IC50 (PACAP38 [4])	IC50, inhibition of cAMP production in SH-SY5Y cells (PACAP38 [5])	IC50, inhibition of cAMP production in SK-N-MC cells (CGRP [6])	EC50 (PACAP27)	EC50 (PACAP38 [7])	Kd (human CGRP [8])	koff (human CGRP [8])	kon (human CGRP [8])	Kd (rat CGRP [9])	koff (rat CGRP [9])	kon (rat CGRP [9])	IC50, inhibition of cAMP production in SK-N-MC cells (CGRP [10])	EC50 (human CGRP [11])	EC50 (rat CGRP [12])
P96H1L1 (antibody, human IgG1, kappa, V domains shown) VH: EVQLVQSGAEVKKPGATVKISCKASGFNIKDYYMHWVQQAPGKGLEWMGWIDPENDNTLYDPKFQDRVTITTDTSTNTAYMELSSLRSEDTAVYYCVFGVMTTVEGDFDYWGQGTTVTVSS VL: ETVVTQEPSLTVSPGGTVTLTCRSSSGTVTTSNYANWVQQKPGQAFRGLIGGTNNRAPGAPARFSGSLLGGKAALTLSGVQPEDEAEYYCALWYSNHWVFGGGTKLTVLR	0.53 nM	1.79 nM	0.76 nM	0.61 nM													
CP-1 (bispecific antibody, Format 2+2, anti-PACAP Fab (P14H2L3) and anti-CGRP scFv (C21H5L3), IgG1 (YTE) Fc; also called Biotin-CP-1) heavy: EVQLVESGGGLVQPGGSLRLSCAASGFAFNNYDMSWVRQAPGKGLEWVATITGGGSYTWYPDSVKGRFTISRDNAKNSLYLQMNSLRAEDTAVYYCARLTGYDQAGAMDYWGQGTTVTVSSASTKGPSVFPLAPSSKSTSGGTAALGCLVKDYFPEPVTVSWNSGALTSGVHTFPAVLQSSGLYSLSSVVTVPSSSLGTQTYICNVNHKPSNTKVDKKVEPKSCEVQLVQSGAEVKKPGASVKVSCKASGYTFTDYYMNWVRQAPGQCLEWIGDINPNQGGTNYNQKFKGRATLTVDKSASTAYMELSSLRSEDTAVYYCASIIIVPNYFDYWGQGTTVTVSSGGGGSGGGGSGGGGSDIQMTQSPSSLSASVGDRVTITCKASQNVDTNVAWFQQKPGKAPKSLIYSASYRYSGVPSRFSGSGSGTDFTLTISSLQPEDFATYYCQQYNNYPYTFGCGTKVEIKGGGDKTHTCPPCPAPELLGGPSVFLFPPKPKDTLYITREPEVTCVVVDVSHEDPEVKFNWYVDGVEVHNAKTKPREEQYNSTYRVVSVLTVLHQDWLNGKEYKCKVSNKALPAPIEKTISKAKGQPREPQVYTLPPSRDELTKNQVSLTCLVKGFYPSDIAVEWESNGQPENNYKTTPPVLDSDGSFFLYSKLTVDKSRWQQGNVFSCSVMHEALHNHYTQKSLSLSPGK light: DIVLTQSPDSLAVSLGERATINCKASQSVDYDGDSYMTWYQQKPGQPPKLLIYAASHLDSGIPDRFSGSGSGTDFTLTISSLQAEDVAVYYCQQSNEDPWTFGGGTKVEIKRTVAAPSVFIFPPSDEQLKSGTASVVCLLNNFYPREAKVQWKVDNALQSGNSQESVTEQDSKDSTYSLSSTLTLSKADYEKHKVYACEVTHQGLSSPVTKSFNRGEC					4.31 nM	2.66 nM	0.28 nM	0.15 nM	0.00715 nM	1.77e-05 s⁻¹	2.48e+06 M⁻¹ s⁻¹	0.778 nM	0.00116 s⁻¹	1.5e+06 M⁻¹ s⁻¹			
CP-2 (bispecific antibody, Format 2+2, anti-PACAP Fab (P14H2L3) and anti-CGRP scFv (C28H8L2), IgG1 (YTE) Fc; also called Biotin-CP-2) heavy: EVQLVESGGGLVQPGGSLRLSCAASGFAFNNYDMSWVRQAPGKGLEWVATITGGGSYTWYPDSVKGRFTISRDNAKNSLYLQMNSLRAEDTAVYYCARLTGYDQAGAMDYWGQGTTVTVSSASTKGPSVFPLAPSSKSTSGGTAALGCLVKDYFPEPVTVSWNSGALTSGVHTFPAVLQSSGLYSLSSVVTVPSSSLGTQTYICNVNHKPSNTKVDKKVEPKSCEVQLVQSGAEVKKPGASVKVSCKASGYTFTDYYMNWVRQAPGQCLEWMGDINPNTGVTTYNQKFKGRVTITVDKSASTAYMELSSLRSEDTAVYYCASIIIVPDYFDYWGQGTTVTVSSGGGGSGGGGSGGGGSDIQMTQSPSSVSASVGDRVTITCKASQNVGSNVAWYQQKPGKSPKALIYSASYRYSGVPSRFSGSGSGTDFTLTISSLQPEDFATYYCQQYNSYPYTFGCGTKVEIKGGGDKTHTCPPCPAPELLGGPSVFLFPPKPKDTLYITREPEVTCVVVDVSHEDPEVKFNWYVDGVEVHNAKTKPREEQYNSTYRVVSVLTVLHQDWLNGKEYKCKVSNKALPAPIEKTISKAKGQPREPQVYTLPPSRDELTKNQVSLTCLVKGFYPSDIAVEWESNGQPENNYKTTPPVLDSDGSFFLYSKLTVDKSRWQQGNVFSCSVMHEALHNHYTQKSLSLSPGK light: DIVLTQSPDSLAVSLGERATINCKASQSVDYDGDSYMTWYQQKPGQPPKLLIYAASHLDSGIPDRFSGSGSGTDFTLTISSLQAEDVAVYYCQQSNEDPWTFGGGTKVEIKRTVAAPSVFIFPPSDEQLKSGTASVVCLLNNFYPREAKVQWKVDNALQSGNSQESVTEQDSKDSTYSLSSTLTLSKADYEKHKVYACEVTHQGLSSPVTKSFNRGEC					1.92 nM	2.03 nM	0.16 nM	0.1 nM	0.0117 nM	2.35e-05 s⁻¹	2e+06 M⁻¹ s⁻¹	0.358 nM	0.000743 s⁻¹	2.07e+06 M⁻¹ s⁻¹			
C21H2L1 (antibody, human IgG1, kappa, V domains shown, also called Biotin-C21H2L1) VH: EVQLVQSGAEVKKPGASVKVSCKASGYTFTDYYMNWVRQAPGQRLEWIGDINPNQGGTNYNQKFKGRATLTVDKSASTAYMELSSLRSEDTAVYYCASIIIVPNYFDYWGQGTTVTVSS VL: DIQMTQSPSSLSASVGDRVTITCKASQNVDTNVAWFQQKPGKAPKSLIYSASYRYSGVPSRFSGSGSGTDFTLTISSLQPEDFATYYCQQYNNYPYTFGGGTKVEIKR						1.98 nM			0.00381 nM	1.92e-05 s⁻¹	5.04e+06 M⁻¹ s⁻¹	0.103 nM	0.000232 s⁻¹	2.25e+06 M⁻¹ s⁻¹	1.25 nM	2.3 nM	4.26 nM
C28H6L1 (antibody, human IgG1, kappa, V domains shown, also called Biotin-C28H6L1) VH: EVQLVQSGAEVKKPGASVKVSCKASGYTFTDYYMNWVRQAPGQRLEWMGDINPNTGVTTYNQKFKGRVTITVDKSASTAYMELSSLRSEDTAVYYCASIIIVPDYFDYWGQGTTVTVSS VL: DIQMTQSPSSVSASVGDRVTITCKASQNVGSNVAWYQQKPGKSPKALIYSASYRYSGVPSRFSGSGSGTDFTLTISSLQPEDFATYYCQQYNSYPYTFGGGTKVEIKR						1.61 nM			0.00479 nM	2.41e-05 s⁻¹	5.03e+06 M⁻¹ s⁻¹	0.0674 nM	0.000139 s⁻¹	2.06e+06 M⁻¹ s⁻¹	2.49 nM	1.26 nM	5.29 nM
P96#-CHI (antibody, human IgG1, kappa, V domains shown, chimeric: murine variable regions fused to human constant regions; also called P96#-CH1) VH: EVQLQQSGADLVRPGALVKLSCKASGFNIKDYYMHWVKQRPEQGLEWIGWIDPENGNTLYDPKFQDKASITTDTSSNTAYLQLSSLTSEDTAVYYCVFGVMTTVEGDFDYWGQGTALTVSS VL: QAVVTQESALTTSPGETVTLTCRSSSGTVTTSNYANWVQEKPDHLFTGLIGGTNNRAPGAPARFSGSLIGDKAALTITGAQTEDEAIYFCALWYSNHWVFGGGTKLTVLR	0.53 nM	8.26 nM	0.83 nM	0.68 nM													
